PMC3969220, “N-terminus oligomerization is conserved in intracellular calcium release channels” (Biochemical Journal, 2014)
Values joined by “and” are separate entries in the source; they are usually repeats but may differ in a detail not shown here. Equal values may be shown once.

Tests used:
[1] = biological target: IP3R1^(1–667, K493A), IP3 binding-deficient mutant, c-Myc-tagged, in HEK-293 cells (human); test: cross-linking; HEK-293 cell homogenates expressing c-Myc-tagged IP3R1 1-667 constructs, pre-treated with 10 mM DTT, without or with 1 or 10 μM IP3, incubated with glutaraldehyde for the indicated times; SDS/PAGE (6% gels), anti-c-Myc Western blot
[2] = biological target: IP3R1 N-terminal domain (residues 1–667, human IP3R1/SI− co-ordinates), c-Myc- or HA-tagged, in HEK-293 cells (human); test: as above
[3] = biological target: calpain-cleaved ~150 kDa N-terminal fragment of native RyR1 from rabbit skeletal muscle SR (rabbit (endogenous in skeletal muscle SR)); test: cross-linking; rabbit skeletal muscle SR pre-treated with 10 mM DTT, cleaved with calpain-2, centrifuged; resuspended SR pellet incubated with 0.0025% glutaraldehyde; SDS/PAGE (4% gels), Western blot with Ab2142
[4] = biological target: calpain-cleaved ~150 kDa N-terminal fragment of native RyR1 from rabbit skeletal muscle SR (rabbit (endogenous in skeletal muscle SR)); test: cross-linking; rabbit skeletal muscle SR pre-treated with 10 mM DTT, cleaved with calpain-2, centrifuged; supernatant (liberated N-terminal fragment only) incubated with 0.0025% glutaraldehyde; SDS/PAGE (4% gels), Western blot with Ab2142
[5] = biological target: the molecule itself; test: cross-linking; HEK-293 cell homogenates expressing c-Myc-tagged BT4LR1 or BT4LR3, pre-treated without or with 10 mM DTT, incubated with glutaraldehyde for the indicated times; SDS/PAGE (6% gels), anti-c-Myc Western blot
[6] = biological target: the molecule itself; test: not stated; unpublished work (M. Seidel and S. Zissimopoulos)

**Q.** With “IP3R1^(1–667, K493A), IP3 binding-deficient mutant, c-Myc-tagged, in HEK-293 cells (domain or fragment)” as the molecule, how does the stoichiometry N [1] read?
**A.** 4

**Q.** How did the stoichiometry N [2] turn out when “IP3R1 N-terminal domain (residues 1–667, human IP3R1/SI− co-ordinates), c-Myc- or HA-tagged, in HEK-293 cells (domain or fragment)” was run?
**A.** 4

**Q.** How did the stoichiometry N [3] turn out when “calpain-cleaved ~150 kDa N-terminal fragment of native RyR1 from rabbit skeletal muscle SR (domain or fragment)” was run?
**A.** 2 and 3 and 4

**Q.** What about the stoichiometry N [4] of the same molecule?
**A.** 2 and 3 and 4

B1: c-Myc-tagged RyR1 N-terminal fragment (residues 1–915), BT4LR1, in HEK-293 cells (domain or fragment, rabbit, UniProt P11716 1-915, looked up)
chain: MGDGGEGEDEVQFLRTDDEVVLQCSATVLKEQLKLCLAAEGFGNRLCFLEPTSNAQNVPPDLAICCFTLEQSLSVRALQEMLANTVEAGVESSQGGGHRTLLYGHAILLRHAHSRMYLSCLTTSRSMTDKLAFDVGLQEDATGEACWWTMHPASKQRSEGEKVRVGDDLILVSVSSERYLHLSTASGELQVDASFMQTLWNMNPICSCCEEGYVTGGHVLRLFHGHMDECLTISAADSDDQRRLVYYEGGAVCTHARSLWRLEPLRISWSGSHLRWGQPLRIRHVTTGRYLALTEDQGLVVVDACKAHTKATSFCFRVSKEKLDTAPKRDVEGMGPPEIKYGESLCFVQHVASGLWLTYAAPDPKALRLGVLKKKAILHQEGHMDDALFLTRCQQEESQAARMIHSTAGLYNQFIKGLDSFSGKPRGSGPPAGPALPIEAVILSLQDLIGYFEPPSEELQHEEKQSKLRSLRNRQSLFQEEGMLSLVLNCIDRLNVYTTAAHFAEYAGEEAAESWKEIVNLLYELLASLIRGNRANCALFSTNLDWVVSKLDRLEASSGILEVLYCVLIESPEVLNIIQENHIKSIISLLDKHGRNHKVLDVLCSLCVCNGVAVRSNQDLITENLLPGRELLLQTNLINYVTSIRPNIFVGRAEGSTQYGKWYFEVMVDEVVPFLTAQATHLRVGWALTEGYSPYPGGGEGWGGNGVGDDLYSYGFDGLHLWTGHVARPVTSPGQHLLAPEDVVSCCLDLSVPSISFRINGCPVQGVFEAFNLDGLFFPVVSFSAGVKVRFLLGGRHGEFKFLPPPGYAPCHEAVLPRERLRLEPIKEYRREGPRGPHLVGPSRCLSHTDFVPCPVDTVQIVLPPHLERIREKLAENIHELWALTRIEQGWTYGPVRDDNKRLHPCLVNFHSLPE
notes: ryanodine receptor 1 (RyR1), rabbit, residues 1-915; also called c-Myc–BT4LR1
**Q.** How did the “stoichiometry N” value [5] turn out when B1 was run?
**A.** 4

B2: truncated RyR2 N-terminal fragment (residues 1–654), of the unpublished observation (domain or fragment, human, UniProt Q92736 1-654, looked up)
chain: MADGGEGEDEIQFLRTDDEVVLQCTATIHKEQQKLCLAAEGFGNRLCFLESTSNSKNVPPDLSICTFVLEQSLSVRALQEMLANTVEKSEGQVDVEKWKFMMKTAQGGGHRTLLYGHAILLRHSYSGMYLCCLSTSRSSTDKLAFDVGLQEDTTGEACWWTIHPASKQRSEGEKVRVGDDLILVSVSSERYLHLSYGNGSLHVDAAFQQTLWSVAPISSGSEAAQGYLIGGDVLRLLHGHMDECLTVPSGEHGEEQRRTVHYEGGAVSVHARSLWRLETLRVAWSGSHIRWGQPFRLRHVTTGKYLSLMEDKNLLLMDKEKADVKSTAFTFRSSKEKLDVGVRKEVDGMGTSEIKYGDSVCYIQHVDTGLWLTYQSVDVKSVRMGSIQRKAIMHHEGHMDDGISLSRSQHEESRTARVIRSTVFLFNRFIRGLDALSKKAKASTVDLPIESVSLSLQDLIGYFHPPDEHLEHEDKQNRLRALKNRQNLFQEEGMINLVLECIDRLHVYSSAAHFADVAGREAGESWKSILNSLYELLAALIRGNRKNCAQFSGSLDWLISRLERLEASSGILEVLHCVLVESPEALNIIKEGHIKSIISLLDKHGRNHKVLDVLCSLCVCHGVAVRSNQHLICDNLLPGRDLLLQTRLVNHVSS
notes: may be the same construct as m10
**Q.** How did the “stoichiometry N” value [6] turn out when B2 was run?
**A.** 4

B3: c-Myc-tagged RyR3 N-terminal fragment (residues 1–911), BT4LR3, in HEK-293 cells (domain or fragment, rabbit, UniProt Q9TS33 1-911, looked up)
chain: MAEGGEGGEDEIQFLRTEDEVVLQCIATVHKEQRKFCLAAEGLGNRLCFLEPTSEAKFIPPDLCVCNFVLEQSLSVRALQEMLANTGENGGEGAAQGGGHRTLLYGHAILLRHSFSGMYLTCLTTSRSQTDKLAFDVGLREHATGEACWWTIHPASKQRSEGEKVRIGDDLILVSVSSERYLHLSISNGNIQVDASFMQTLWNVHPTCSGSSIEEGYLLGGHVVRLFHGHDECLTIPSTDQNDSQHRRIFYEAGGAGTRARSLWRVEPLRISWSGSNIRWGQAFRLRHLTTGHYLALTEDQGLLLQDRGKADTKSTAFSFRPSKETKEKLDSSHKRDIEGMGVPEIKYGDSVCFVQHIASGLWVTYKAQDAKTSRLGPLKRKVILHQEGHMDDGLTLQRCQREESQAARIIRNTTALFSQFVSGNNRTAAPVTLPIEEVLQTLHDLIAYFQPPEEEMQHEDKQNKLRSLKNRQNLFKEEGMLALVLNCIDRLNIYNSVAHFAGIAREESGMAWKEVLSLLYKLLAALIRGNRNTCAQFSNNLDWLISKLDRLESSSGILEVLHCILIESPEALNLIAEGHIKSIISLLDKHGRNHKVLDVLCSLCLCNGVAVRANQNLICDNLLPRRNLLLQTRLINDVTSIRPNIFLGVAEGSAQYKKWYFELIIDQVDPFLTAEPTHLRVGWASSSGYAPYPGGGEGWGGNGVGDDLYSYGFDGLHLWSGRIPRAVASINQHLLKSDDVVSCCLDLGVPSISFRINGQPVQGMFENFNTDGLFFPVMSFSAGVKVRFLMGGRHGEFKFLPPSGYAPCYEALLPKEKMRLEPVKEYKRDAEGVRDLLGTTQFLSQASFIPCPIDTSQVVLPPHLEKIRDRLAENIHELWGMNKIELGWTFGKMRDDNKRQHPCLVEFSKL
notes: ryanodine receptor 3 (RyR3), rabbit, residues 1-911; also called c-Myc–BT4LR3
**Q.** Which “stoichiometry N” value [5] does the source give for B3 here?
**A.** 4
